Data as given in patent publication US20240182562A1.

Assays:
Human CLDN18.1 (human) [1] = biological target: Human CLDN18.1 (human) (UniProt P56856); assay: FACS, hybridoma culture supernatant on 293T-human CLDN18.1 cells (permeable membrane treatment)
Human CLDN18.1 (human) [2] = biological target: Human CLDN18.1 (human) (UniProt P56856); assay: FACS, hybridoma culture supernatant on CHO-human CLDN18.1 cells (permeable membrane treatment)

Chain of Human CLDN18.1 (human) (P56856 whole entry): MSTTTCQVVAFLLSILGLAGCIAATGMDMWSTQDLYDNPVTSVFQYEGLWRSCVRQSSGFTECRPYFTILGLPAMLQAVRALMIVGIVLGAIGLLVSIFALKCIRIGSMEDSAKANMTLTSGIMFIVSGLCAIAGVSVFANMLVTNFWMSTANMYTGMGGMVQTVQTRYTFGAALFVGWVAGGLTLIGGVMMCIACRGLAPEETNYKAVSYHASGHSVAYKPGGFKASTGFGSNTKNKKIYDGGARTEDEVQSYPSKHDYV

Row | Average fluorescence intensity (Human CLDN18.1 (human) [1]) | Average fluorescence intensity (Human CLDN18.1 (human) [2]) | Binder
1 | 3040 | 3380 | 7E3 (hybridoma clone, murine CLDN18.2 antigen-binding protein) (antibody, V domains shown) VH: EVQLQQSGPELVKPGASVKMSCKASGYTFTNYIIHWVKQKPGQGLEWIGYINPYTDGPKYNEKFKGRATLTSDKSSSTAYMEFSSLTSEDSAVYYCARLNRGNAMDYWGQGTSVTVSS VL: DIVMTQSPSSLTVTVREKVTLSCKSSQSLLNSGNQKNYLTWYQQKPGQPPKLLIYWASTRESGVPDRFTGSGSGTDFTLTISSVQAEDLAVYYCQNVYIYPFTFGAGTKLELKR
2 | 2580 | 1860 | 14E12 (hybridoma clone, murine CLDN18.2 antigen-binding protein) (antibody, V domains shown) VH: EVQLQESGPELVKPGASVKMSCKASGYTFTNYIIHWVKQKPGQGLEWIGYINPYTDGPKYNEKFKGRATLTSDKSSSTAYMEFSSLTSEDSAVYYCARLNRGNAMDYWGQGTSVTVSS VL: DIVMTQSPSSLSVSAGEKVTMSCKSSQSLLNNGNQKNYLAWYQQKPGQPPKLLIYGASTRESGVPDRFTGSGSGTDFALTISSVQAEDLAVYYCQNDLYYPFTFGSGTKLDIKR

Continued, binder first:

Row | Binder | Average fluorescence intensity (Human CLDN18.1 (human) [1]) | Average fluorescence intensity (Human CLDN18.1 (human) [2])
3 | 17B10 (hybridoma clone, murine CLDN18.2 antigen-binding protein) (antibody, V domains shown) VH: EVQLQESGPELVKPGASVKMSCKASGYTFTNYIIHWVKQKPGQGLEWIGYINPYTDGPKYNEKFKGRATLTSDKSSSTAYMEFSSLTSEDSAVYYCARLNRGNAMDYWGQGTSVTVSS VL: DIVMTQSPSSLTVTAGEKVTMNCKSSQSLLNSGNQKNYLTWYQQKPGQPPKLLIYWASTRESGVPDRFTGSGSGTDFTLTISSVQAEDLAVYYCQNDYSFPFTFGSGTKLEIKR | 2400 | 1680
4 | 5E6 (hybridoma clone, murine CLDN18.2 antigen-binding protein) (antibody, V domains shown) VH: EVQLQQSGPELVKPGASVKMSCKASGYTFTNYVMNWVKQKPGQGLEWIGYINPYNDGTKYNERFKGKATLTSDKSSSTAFMEVSSLTSEDSAVYYCARLYRGNAMDYWGQGTSVTVSS VL: DIVMTQSPSSLTVTVREKVTLSCKSSQSLLNSGNQKNYLTWYQQKPGQPPKLLIYWASTRESGVPDRFTGSGSGTDFTLTISSVQAEDLAVYYCQNVYIYPFTFGAGTKLELKR | 4330 | 5370
